{"source": "patent US7314724B2", "about": "“Therapeutic applications of laminin and laminin-derived protein fragments” (University of Washington, priority 1996, dated 2008)", "target": "T1, biotinylated Aβ (1-40) (Homo sapiens, UniProt P05067)", "T1 construct": "Aβ (1-40) was biotinylated according to the manufacturer's protocol (Pierce, Rockford, Ill.)", "T1 sequence (P05067 672-711 limits assumed)": "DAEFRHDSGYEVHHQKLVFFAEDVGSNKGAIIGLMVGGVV", "test": "Aβ ligand blot of undigested and V8-, trypsin- or elastase-digested EHS laminin", "format": "binding", "settings": "2 μM biotinylated Aβ (1-40), SDS-PAGE under non-reducing conditions", "experimental": "For these experiments, Aβ (1-40) was biotinylated according to the manufacturer's protocol (Pierce, Rockford, Ill.). For the ligand studies, intact EHS laminin was left undigested, or digested with V8 or trypsin (Sigma Chemical Company, St. Louis, Mo., USA). More specifically, 2 μg of trypsin or V8 protease in 2 μl of 50 MM Tris-HCl buffer (pH 8.0) were added to 50 μl of laminin (50 μg)(in the same buffer) and incubated overnight at 37° C. The next day, 10 μl of protease-digested laminin (or undigested laminin) was mixed with 10 μl of 2× sodium dodecyl sulfate polyacrylamide gel electrophoresis (SDS-PAGE) sample buffer, and heated for 5 minutes in a boiling water bath. SDS-PAGE was performed according to the method of Laemmli (Laemmli, U.K. Nature 227:680-685, 1970), or according to the method of Schägger and Jagow (Schägger and Jagow, Anal. Biochem. 166:368-379, 1987) using a Mini-Protean II electrophoresis system (Biorad) with precast 4-15% Tris-Glycine or 10-20% tricine polyacrylamide gels, respectively, and under non-reducing conditions. Electrophoresis occurred at 200V for 45 minutes along with pre-stained molecular weight standards. After SDS-PAGE (10-20% tricine or 4-15% Tris-Glycine gels) was performed as described above, the separated laminin and its fragments (total protein of 10 μg/lane) were transferred to polyvinylidine difluoride membrane (PVDF) using a Mini transblot electrophoresis transfer cell (Biorad, Hercules, Calif., U.S.A.). Electrotransfer was performed at 100V for 2 hours. Following transfer, membranes were rinsed with methanol and dried. The fragment(s) of laminin involved in binding to Aβ were then detected by using biotinylated-Aβ (1-40), as described above. Blots were probed for 2 hours with 2 μM biotinylated Aβ (1-40) in TTBS. The membranes were then rinsed three times (10 seconds each) with TTBS, probed for 30 minutes with strepavidin alkaline phosphatase conjugate (Vectastain), rinsed again (as described above), and followed by the addition of an alkaline phosphatase substrate solution (Vectastain). Following color development, the reaction was stopped by flushing the membranes with double distilled water. In the next set of studies, we determined whether small fragment(s) of laminin generated by elastase digestion would bind to Aβ. […] For these experiments, Aβ (1-40) was biotinylated according to the manufacturer's protocol (Pierce, Rockford, Ill.). For the ligand studies, intact EHS laminin was left undigested, or digested with elastase (Sigma Chemical Company, St. Louis, Mo., USA). For elastase digestion, 2 μg of elastase in 8 μl of 50 mM Tris-HCl buffer (pH 8.0) was added to 50 μl of laminin (50 μg)(in the same buffer) and incubated for 1.5 hours or 2.5 hours at 37° C. In addition, as a control, 2 μg of elastase in 50 μl of 50 mM Tris-HCl buffer (pH 8.0) was incubated for 2.5 hours at 37° C. Following the appropriate incubation times as described above, 10 μl of each of the above incubations were mixed with 10 μl of 2× SDS-PAGE electrophoresis sample buffer, and heated for 5 minutes in a boiling water bath. SDS-PAGE was performed according to the method of Laemmli (Laemmli, Nature 227:680-685, 1970) using a Mini-Protean II electrophoresis system with precast 4-15% Tris-Glycine polyacrylamide gels, and under non-reducing conditions. Electrophoresis occurred at 200V for 45 minutes along with pre-stained molecular weight standards (Biorad). After SDS-PAGE was performed as described above, the separated laminin fragments were transferred to PVDF using a Mini transblot electrophoresis transfer cell (Millipore, Bedford, Mass., U.S.A.). Electrotransfer was performed at 100V for 2 hours. Following transfer, membranes were rinsed with methanol, dried and cut into two equal parts which were used for Aβ ligand blotting, or Coomassie blue staining and subsequent amino acid sequencing. The fragment(s) of laminin involved in binding to Aβ were then detected by using biotinylated-Aβ (1-40), as described above. […]"}
{"substance": "laminin: Engelbreth-Holm-Swarm (EHS) mouse tumor laminin (Sigma); 850 kDa basement membrane glycoprotein of A, B1 and B2 chains", "values": [{"measurement": "interaction with biotinylated Aβ (1-40) on ligand blot, in words", "value": "most prominent Aβ-interaction"}]}
